Reference: patent publication US20030211992A1 (published 2003)

Columns and labels:
[1] = biological target: T1, recombinant human IGFBP-3 (human, UniProt P17936 28-291); experiment: competitive phage ELISA
T1 construct: biotinylated and held on a streptavidin chip in the ALS experiment

human IGFBP-1 = biological target: T2, human IGFBP-1 (human, UniProt P08833 26-259); experiment: competitive phage ELISA
T2 construct: biotinylated in the ELISA formats; amine-coupled to the chip in peptide kinetics
T2 sequence (looked up): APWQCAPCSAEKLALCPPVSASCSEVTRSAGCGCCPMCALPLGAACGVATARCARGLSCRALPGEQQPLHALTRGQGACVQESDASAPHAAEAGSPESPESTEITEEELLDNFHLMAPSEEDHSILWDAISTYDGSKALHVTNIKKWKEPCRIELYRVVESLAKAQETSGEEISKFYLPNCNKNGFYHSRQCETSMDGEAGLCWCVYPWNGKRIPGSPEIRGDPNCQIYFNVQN

T1 sequence (P17936 28-291 limits assumed): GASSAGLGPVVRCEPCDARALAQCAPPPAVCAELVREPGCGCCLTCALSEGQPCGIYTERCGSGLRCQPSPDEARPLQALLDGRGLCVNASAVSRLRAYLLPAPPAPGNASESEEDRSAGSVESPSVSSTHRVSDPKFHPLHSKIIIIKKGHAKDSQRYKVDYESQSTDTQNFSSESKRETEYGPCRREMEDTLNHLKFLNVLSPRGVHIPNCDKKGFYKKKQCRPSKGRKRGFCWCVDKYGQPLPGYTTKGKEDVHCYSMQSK

Row | Substance | IC50 [1] [nM] | relative IC50 (mut/G1S-A70V) [1] | IC50 (human IGFBP-1) [nM] | relative IC50 (mut/G1S-A70V) (human IGFBP-1)
1 | L54A IGF-1 (G1S-A70V background) on phage (from UniProt P69168 267-424) (ligand) | 1.83 | 2.4 | 23.1 | 2.8
2 | Y31A IGF-1 (G1S-A70V background) on phage (from UniProt P69168 267-424) (ligand) | 0.73 | 1 | 6.8 | 0.8
3 | T4A IGF-1 (G1S-A70V background) on phage (from UniProt P69168 267-424) (ligand) | 0.8 | 1.1 | 19.4 | 2.4
4 | R55A IGF-1 (G1S-A70V background) on phage (from UniProt P69168 267-424) (ligand) | 0.66 | 0.9 | 9 | 1.1
5 | V70A IGF-1 (single mutant of G1S-A70V) on phage (from UniProt P69168 267-424) (ligand) | 0.68 | 0.9 | 19.1 | 2.3
6 | E46A IGF-1 (G1S-A70V background) on phage (from UniProt P69168 267-424) (ligand) | 0.94 | 1.3 | 7.9 | 1
7 | G42A IGF-1 (G1S-A70V background) on phage (from UniProt P69168 267-424) (ligand) | 0.53 | 0.7 | 15.7 | 1.9
8 | R56A IGF-1 (G1S-A70V background) on phage (from UniProt P69168 267-424) (ligand) | 1 | 1.3 | 13.1 | 1.6
9 | T41A IGF-1 (G1S-A70V background) on phage (from UniProt P69168 267-424) (ligand) | 0.43 | 0.6 | 13.7 | 1.7
10 | D45A IGF-1 (G1S-A70V background) on phage (from UniProt P69168 267-424) (ligand) | 0.69 | 0.9 | 4.7 | 0.6
11 | I43A IGF-1 (G1S-A70V background) on phage (from UniProt P69168 267-424) (ligand) | 1.17 | 1.6 | 31.3 | 3.8
12 | R37A IGF-1 (G1S-A70V background) on phage (from UniProt P69168 267-424) (ligand) | 0.75 | 1 | 12.3 | 1.5
13 | L64A IGF-1 (G1S-A70V background) on phage (from UniProt P69168 267-424) (ligand) | 0.93 | 1.2 | 12.1 | 1.5
14 | S33A IGF-1 (G1S-A70V background) on phage (from UniProt P69168 267-424) (ligand) | 1.01 | 1.3 | 9.1 | 1.1
15 | S69A IGF-1 (G1S-A70V background) on phage (from UniProt P69168 267-424) (ligand) | 0.71 | 1.2 | 12.8 | 1.6
16 | L57A IGF-1 (G1S-A70V background) on phage (from UniProt P69168 267-424) (ligand) | 1.78 | 2.4 | 21.8 | 2.7
17 | T29A IGF-1 (G1S-A70V background) on phage (from UniProt P69168 267-424) (ligand) | 1.23 | 1.6 | 7.3 | 0.9
18 | K68A IGF-1 (G1S-A70V background) on phage (from UniProt P69168 267-424) (ligand) | 0.76 | 1 | 10.5 | 1.3
19 | E58A IGF-1 (G1S-A70V background) on phage (from UniProt P69168 267-424) (ligand) | 1.03 | 1.4 | 11.9 | 1.5
20 | R50A IGF-1 (G1S-A70V background) on phage (from UniProt P69168 267-424) (ligand) | 0.64 | 0.9 | 16.2 | 2

Row | Substance | IC50 [1] [nM] | relative IC50 (mut/G1S-A70V) [1] | IC50 (human IGFBP-1) [nM] | relative IC50 (mut/G1S-A70V) (human IGFBP-1)
21 | M59A IGF-1 (G1S-A70V background) on phage (from UniProt P69168 267-424) (ligand) | 0.74 | 1 | 13.1 | 1.6
22 | K65A IGF-1 (G1S-A70V background) on phage (from UniProt P69168 267-424) (ligand) | 0.69 | 0.9 | 12.4 | 1.5
23 | D53A IGF-1 (G1S-A70V background) on phage (from UniProt P69168 267-424) (ligand) | 1.05 | 1.2 | 15.3 | 1.9
24 | G32A IGF-1 (G1S-A70V background) on phage (from UniProt P69168 267-424) (ligand) | 0.76 | 1 | 10.9 | 1.3
25 | E3A IGF-1 (G1S-A70V background) on phage (from UniProt P69168 267-424) (ligand) | 1.05 | 1.4 | 278 | 33.9
26 | G30A IGF-1 (G1S-A70V background) on phage (from UniProt P69168 267-424) (ligand) | 0.58 | 0.8 | 7.1 | 0.9
27 | L5A IGF-1 (G1S-A70V background) on phage (from UniProt P69168 267-424) (ligand) | 1.53 | 2 | 55.3 | 6.7
28 | S34A IGF-1 (G1S-A70V background) on phage (from UniProt P69168 267-424) (ligand) | 1.65 | 2.2 | 9.5 | 1.2
29 | P63A IGF-1 (G1S-A70V background) on phage (from UniProt P69168 267-424) (ligand) | > 100 | > 100 | > 1000 | > 100
30 | Y60A IGF-1 (G1S-A70V background) on phage (from UniProt P69168 267-424) (ligand) | 0.52 | 0.7 | 6.6 | 0.8
31 | S35A IGF-1 (G1S-A70V background) on phage (from UniProt P69168 267-424) (ligand) | 0.47 | 0.6 | 11.7 | 1.4
32 | F49A IGF-1 (G1S-A70V background) on phage (from UniProt P69168 267-424) (ligand) | 2.72 | 3.6 | > 1000 | > 100
33 | S51A IGF-1 (G1S-A70V background) on phage (from UniProt P69168 267-424) (ligand) | 0.65 | 0.9 | 13.4 | 1.6
34 | P66A IGF-1 (G1S-A70V background) on phage (from UniProt P69168 267-424) (ligand) | 0.57 | 0.8 | 9.4 | 1.1
35 | E9A IGF-1 (G1S-A70V background) on phage (from UniProt P69168 267-424) (ligand) | 1.32 | 1.8 | 8.6 | 1
36 | S1G IGF-1 (single mutant of G1S-A70V) on phage (from UniProt P69168 267-424) (ligand) | 0.99 | 1.3 | 11.2 | 1.4
37 | Q40A IGF-1 (G1S-A70V background) on phage (from UniProt P69168 267-424) (ligand) | 0.56 | 0.7 | 10.2 | 1.2
38 | G7A IGF-1 (G1S-A70V background) on phage (from UniProt P69168 267-424) (ligand) | 4.58 | 6.1 | > 1000 | > 100
39 | V44A IGF-1 (G1S-A70V background) on phage (from UniProt P69168 267-424) (ligand) | 1.03 | 1.4 | 18.8 | 2.3
